# Key:
# [1] = biological target: T1, recombinant human IFNω (Homo sapiens, UniProt P05000); assay: SPR; antibodies 19D11 and 26B9 immobilized on Biacore chips; different concentrations of recombinant human IFNs passed over; Biacore T200; settings: both partners purified
# T1 construct: interferon omega-1, human; source: recombinant
# [2] = biological target: T2, human IL17F (Homo sapiens, UniProt Q96PD4); assay: ELISA; IL17F immobilized; mAbs and germline counterparts added
# T2 construct: interleukin-17F, human
# [3] = biological target: T3, human IL22 (Homo sapiens, UniProt Q9GZX6); assay: SPR; Biacore T200; who was immobilised is not told for these mAbs (values of Table S3); settings: both partners purified
# T3 construct: interleukin-22, human; also called interleukin-22
# [4] = biological target: T2, human IL17F; assay: as above; settings: both partners purified
# [5] = biological target: T4, recombinant human IFNα14 (Homo sapiens, UniProt P01570); assay: SPR; antibodies 19D11 and 26B9 immobilized on Biacore chips; different concentrations of recombinant human IFNs passed over; Biacore T200; settings: both partners purified
# T4 construct: interferon alpha-14, human; source: recombinant
# [6] = biological target: T5, recombinant human IFNα4 (Homo sapiens, UniProt P05014); assay: as above; settings: both partners purified
# T5 construct: interferon alpha-4, human; source: recombinant
# T5 sequence (P05014 24-189): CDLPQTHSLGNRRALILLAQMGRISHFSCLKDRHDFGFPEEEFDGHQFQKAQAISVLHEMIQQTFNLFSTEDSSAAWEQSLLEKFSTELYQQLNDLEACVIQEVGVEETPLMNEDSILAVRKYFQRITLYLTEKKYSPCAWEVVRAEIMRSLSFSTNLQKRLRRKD
# T3 sequence (Q9GZX6 34-179): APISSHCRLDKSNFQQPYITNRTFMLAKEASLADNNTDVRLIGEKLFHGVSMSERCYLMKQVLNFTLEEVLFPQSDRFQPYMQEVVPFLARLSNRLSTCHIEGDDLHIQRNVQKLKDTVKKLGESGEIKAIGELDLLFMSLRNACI
# T2 sequence (Q96PD4 31-163): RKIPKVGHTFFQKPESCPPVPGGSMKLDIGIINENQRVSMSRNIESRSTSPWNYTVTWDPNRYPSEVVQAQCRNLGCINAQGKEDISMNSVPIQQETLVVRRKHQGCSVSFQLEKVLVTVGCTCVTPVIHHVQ
# T1 sequence (P05000 22-195): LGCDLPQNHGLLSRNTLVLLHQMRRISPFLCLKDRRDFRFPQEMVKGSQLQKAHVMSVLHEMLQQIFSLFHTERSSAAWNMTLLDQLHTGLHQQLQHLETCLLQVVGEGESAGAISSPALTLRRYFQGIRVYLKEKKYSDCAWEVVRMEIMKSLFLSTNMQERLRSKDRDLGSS
# T4 sequence (P01570 24-189): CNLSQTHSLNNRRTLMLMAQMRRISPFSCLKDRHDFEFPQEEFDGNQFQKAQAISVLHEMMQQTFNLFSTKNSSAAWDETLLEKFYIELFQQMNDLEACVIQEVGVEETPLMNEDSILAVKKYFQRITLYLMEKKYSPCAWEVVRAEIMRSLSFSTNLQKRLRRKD
binder,measurement,setting,value
"19D11, APS1/APECED patient-derived anti-IFN monoclonal antibody (antibody, V domains shown, V regions cloned into vectors providing IgG1 and Ig-kappa constant regions; source: recombinant, harvested from transfected CHO cells (SPR); recombinant antibodies were also produced in HEK293T cells) VH: QVQLVQSGAEVKRPGSSVRVSCRASGDTFSSYPISWVRQAPGQGLEWMGRILPALGVTNYAQNFRGRITITADKSPLTAYLELSSLRFEDTAVYYCASPSADIIPSILGTTLFAFWGQGSLVTVSS VL: EIVLTQSPGTLSLSPGEGATLSCRASQNVSRHYLTWYQQKPGQSPRLLIYGGSSRATGVPDRFSGGGSGTDFTLTISRLEPEDFAVFYCQSYHSPPPVYTFGQGTKVEIK",binding result,[1],no binding
"9A2, patient-derived IL17F-reactive mAb (antibody, V domains shown, source: recombinant) VH: EVQLEESGGGLVQPGGSLRLSCAASGFPFSNYEMNWVRQAPGKGLEWISYISVSGGPAHYADSVKGRFTISRDDATKSLFLQMNRLRADDTAVYYCVRREYVTGRNYNYYPYMDVWGTGTTVTVSP VL: DIQMTQSPSSLSASVGDRVTITCRASQTISDYLNWYQHKPGEAPKLLIYSASTLQRGVPSRFSGSGSGTDFVFTISSLQSDDFATYYCQQTSSTALTFGGGTKVEVK",binding result,[2],binds
"30G1, patient-derived IgGκ antibody specific for IL22 (antibody, V domains shown, kappa light chain; IgG1 kappa by the cloning vectors; source: recombinant) VH: EVQLLESGGGLVQPGGSLRLSCAASGFTFSTYAMSWVRQAPGKGLEWVSTITSSGGATYHADSVKGRLTISRDNSKNTLYLEMNSLRVEDTAVYYCAKDWGRTVYAVIKDLDIWGQGTLVTVSS VL: EIVMTQSPAILSVSPGERATLSCRASQSVSNYLAWFQQKPGQAPRLLIYDTSKRATGTPARFSGSGSGTDFTLTISSLEPEDFAVYFCQQRSDWPQYTFGQGTKLEIK",Kd,[3],0.037 nM
"17E3, patient-derived IgGκ mAb specific for IL17F (antibody, V domains shown, kappa light chain; IgG1 kappa by the cloning vectors; source: recombinant) VH: QVQLVQSGAEVAKPGASVRLSCKASGFSFIKYYMHWVRQAPGQGLEWMGVIEPTGGGTSSAQKFRDRVTLSRDTSTATVHLEVSRLTLEDTGIYFCVRDSIYCKHGTCHRTVIDAFDIWGQGTAVTVSS VL: DIQMTQSPSSLSASVGDRVTITCRSSQDIKNDLAWYQQKPGKAPERLIYAASNLQSGVPSRFSGSGSGTEFSLTISGLQPEDFATYYCLQHNSYPLLTFGGGTKVEIK",Kd,[4],< 0.01 nM
"26B9, APS1/APECED patient-derived anti-IFN monoclonal antibody (antibody, V domains shown, V regions cloned into vectors providing IgG1 and Ig-kappa constant regions; source: recombinant, harvested from transfected CHO cells (SPR); recombinant antibodies were also produced in HEK293T cells) VH: QILLQESGPGLVKPTETLSLTCSVSGDSISDSSHYWAWIRQPPGKGPEWIGSVYFSSMTHYNPSLKSRVSISVDKPKNQFSLKVTSVTVADTATYYCARQALARVGAMNWFDPWGQGSLVTVSS VL: DIIMTQSPDSLPVSLGEGVTINCKSSQSVFFTSSNKSCLAWYQQKPGKSPKLLIYWASTRQSGVPDRFRGSGSGTDFSLTITSLQAEDVAVYFCQQCQTSPPTFGGGTRLEIK",binding result,[1],binds
same,Kd,[5],0.0328 pM
same,binding result,[6],binds
"35G11, patient-derived IgGλ antibody specific for IL22 (antibody, V domains shown, lambda light chain; IgG1 lambda by the cloning vectors; source: recombinant) VH: QVQLVQSGSELRRPGASVNISCKASGYGFNTYAMNWVRQAPGQGPEWMGWINTDTGDPTYAQGFTGRFAFFLDTSASTAFLQITRLTGEDTAVYFCARTRNNWNGVYYHYSGLDVWGQGTTVTVSS VL: QSVLTQPPSASGTPGQTVTISCSGSSPNLGDNYVYWYHQVPGTAPKLLIFRNTQRPSGVTDRFSGSKYGTSASLAISDLRSDDEGDFYCASWDDRLSRLVFGGGTKLTVL",Kd,[3],0.039 nM
"fezakinumab, CHO cell-expressed form (in-house-expressed anti-IL22 mAb) (antibody, V domains shown, expressed as the patient mAbs (vectors providing IgG1 and light-chain constant regions); source: CHO cell-expressed; V regions ordered as CHO-codon-optimized synthetic constructs (GenScript)) VH: QVQLVQSGAEVKKPGASVKVSCKASGYTFTNYYMHWVRQAPGQGLEWVGWINPYTGSAFYAQKFRGRVTMTRDTSISTAYMELSRLRSDDTAVYYCAREPEKFDSDDSDVWGRGTLVTVSS VL: QAVLTQPPSVSGAPGQRVTISCTGSSSNIGAGYGVHWYQQLPGTAPKLLIYGDSNRPSGVPDRFSGSKSGTSASLAITGLQAEDEADYYCQSYDNSLSGYVFGGGTQLTVL",Kd,[3],0.054 nM

# Reference: article PMC4967814 (Cell, 2016)
